Values quoted from earlier work as cited in paper PMC7617445.

Molecular target: IL-18 (Homo sapiens) (UniProt Q14116)
Sequence (Q14116 37-193): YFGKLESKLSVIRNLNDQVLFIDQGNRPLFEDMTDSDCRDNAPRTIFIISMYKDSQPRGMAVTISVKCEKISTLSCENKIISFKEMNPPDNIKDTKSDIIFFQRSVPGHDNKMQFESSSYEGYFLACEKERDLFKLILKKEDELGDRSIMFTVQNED

IL-18BP, sequence (O95998 31-194): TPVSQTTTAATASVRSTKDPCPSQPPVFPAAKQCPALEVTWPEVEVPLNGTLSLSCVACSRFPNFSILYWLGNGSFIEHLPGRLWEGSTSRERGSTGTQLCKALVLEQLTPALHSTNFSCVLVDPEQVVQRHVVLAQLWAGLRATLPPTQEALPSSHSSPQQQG

## IL-18BP (from UniProt O95998)
  Kd: 0.1 nM
